Laboratory results as given in patent US20170173107A1.
Positions of bridges follow the written chain, without caps; N, C: chain ends. Non-standard residues stand in square brackets, D forms with d. ABM2 = diphenyl-cyclohexanol phosphate ester hexanoic acid tag; Trp(1-Me) = Cn1cc(C[C@H](N)C(=O)O)c2ccccc21; NMeI = CC[C@H](C)[C@H](NC)C(=O)O; Sar = CNCC(=O)O

What was measured:
[1] = target: plasma proteins of C3-depleted serum; assay: rapid equilibrium dialysis, 5 µM peptide, C3-depleted serum, 37 °C 24 h, UPLC-HDMS
[2] = target: plasma proteins of C3-positive serum (C3-depleted serum with 5 µM purified C3 added); assay: rapid equilibrium dialysis, 10 µM peptide, C3-positive serum (5 µM C3), 37 °C 24 h, UPLC-HDMS
[3] = target: plasma proteins of C3-positive serum (C3-depleted serum with 5 µM purified C3 added); assay: rapid equilibrium dialysis, 5 µM peptide, C3-positive serum (5 µM C3), 37 °C 24 h, UPLC-HDMS
[4] = target: plasma proteins of C3-depleted serum; assay: rapid equilibrium dialysis, 10 µM peptide, C3-depleted serum, 37 °C 24 h, UPLC-HDMS

Binder | % bound [1] [%] | % bound [2] [%] | % bound [3] [%] | % bound [4] [%]
Ac-ICV[Trp(1-Me)]QDW[Sar]AHRC[NMeI]-NH2 (disulfide 2-12; SMILES CC[C@H](C)[C@H](NC(C)=O)C(=O)N[C@H]1CSSC[C@@H](C(=O)N(C)[C@H](C(N)=O)[C@@H](C)CC)NC(=O)[C@H](CCCNC(=N)N)NC(=O)[C@H](Cc2c[nH]cn2)NC(=O)[C@H](C)NC(=O)CN(C)C(=O)[C@H](Cc2c[nH]c3ccccc23)NC(=O)[C@H](CC(=O)O)NC(=O)[C@H](CCC(N)=O)NC(=O)[C@H](Cc2cn(C)c3ccccc23)NC(=O)[C@H](C(C)C)NC1=O) [Cp20 (Ac-Ile-[Cys-Val-Trp(Me)-Gln-Asp-Trp-Sar-Ala-His-Arg-Cys]-mIle-NH2)] | 7 | 84 | > 99 | 3
ABM2-ICVWQDW[Sar]AHRC[NMeI]-NH2 (disulfide 2-12; not fully specified (residue 4); printed as ABM2-Ile-[Cys-Val-Trp(Me)-Gln-Asp-Trp-Sar-Ala-His-Arg-Cys]-mIle-NH2) [ABM2-Cp20 (ABM2-Ile-[Cys-Val-Trp(Me)-Gln-Asp-Trp-Sar-Ala-His-Arg-Cys]-mIle-NH2)] | > 99 | > 99 | > 99 | > 99
